Experimental data taken from US20030078370.

Experiments:
[1] = tested on: GFP protein fused to full length human cyclin E2 [GFP: P42212]
[2] = tested on: GFP protein fused to human cyclin E2 splice variant [GFP: P42212]

hemagluttinin-tagged human cdk2
phosphorylation of histone H1 (kinase assay with 32P-ATP, autorad) [1]: can phosphorylate histone H1
phosphorylation of histone H1 (kinase assay with 32P-ATP, autorad) [2]: cannot phosphorylate histone H1
